# Literature values in PMC4332414.
# Target: Collagen type II (UniProt P02458)
# Assay: surface plasmon resonance
# DDR2 DS domain, sequence (Q16832 30-185): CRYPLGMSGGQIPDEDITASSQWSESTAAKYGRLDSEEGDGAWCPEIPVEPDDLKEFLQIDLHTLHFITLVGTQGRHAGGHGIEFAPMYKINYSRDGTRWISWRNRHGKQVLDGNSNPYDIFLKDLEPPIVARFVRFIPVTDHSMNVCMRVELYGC
# Collagen type II, sequence (P02458 182-1241): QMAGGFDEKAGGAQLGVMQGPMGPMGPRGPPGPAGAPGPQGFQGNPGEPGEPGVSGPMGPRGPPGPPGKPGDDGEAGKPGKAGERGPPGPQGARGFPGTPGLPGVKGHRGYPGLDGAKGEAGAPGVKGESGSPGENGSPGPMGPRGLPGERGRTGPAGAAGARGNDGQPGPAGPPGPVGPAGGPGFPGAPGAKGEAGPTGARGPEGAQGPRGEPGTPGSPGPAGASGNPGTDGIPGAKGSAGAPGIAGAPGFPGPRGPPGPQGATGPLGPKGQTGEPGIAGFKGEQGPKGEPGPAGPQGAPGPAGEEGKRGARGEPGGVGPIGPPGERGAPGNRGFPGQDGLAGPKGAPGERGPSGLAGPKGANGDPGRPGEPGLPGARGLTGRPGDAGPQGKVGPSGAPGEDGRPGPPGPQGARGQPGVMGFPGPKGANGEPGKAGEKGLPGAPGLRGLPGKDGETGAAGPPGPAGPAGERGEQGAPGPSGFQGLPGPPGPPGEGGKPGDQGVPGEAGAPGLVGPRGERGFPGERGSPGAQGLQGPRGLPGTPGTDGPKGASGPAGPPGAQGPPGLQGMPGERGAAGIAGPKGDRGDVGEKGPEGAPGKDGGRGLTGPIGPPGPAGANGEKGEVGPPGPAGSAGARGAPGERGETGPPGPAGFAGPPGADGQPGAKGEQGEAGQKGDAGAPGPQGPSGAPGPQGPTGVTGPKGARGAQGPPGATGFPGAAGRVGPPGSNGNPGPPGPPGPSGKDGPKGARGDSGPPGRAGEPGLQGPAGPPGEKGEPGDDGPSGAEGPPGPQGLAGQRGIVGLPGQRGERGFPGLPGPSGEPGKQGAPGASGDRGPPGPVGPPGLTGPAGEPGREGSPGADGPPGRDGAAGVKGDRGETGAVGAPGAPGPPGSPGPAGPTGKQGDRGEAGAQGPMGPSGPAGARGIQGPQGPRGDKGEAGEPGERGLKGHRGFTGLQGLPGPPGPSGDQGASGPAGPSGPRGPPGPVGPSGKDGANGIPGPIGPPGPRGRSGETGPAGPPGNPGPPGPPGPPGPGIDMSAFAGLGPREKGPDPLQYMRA
substance,measurement,value
DDR2 DS domain (from UniProt Q16832),Kd,25 µM
